Laboratory results taken from US20260209352A1 (Adimab, published 2026).
Substitutions are numbered along the chain they refer to. Each block holds one binder with its values, some of them ahead of it.

Tests used:
Human CD3εδ-Fc (human) = Human CD3εδ-Fc (human) (UniProt P04234); assay: KD of scFv-Fc or IgG on human CD3εδ-Fc; instrument not given
[1] = biological target: T1, Cynomolgus CD3 on Cyno CD3+ Jurkat cells (cynomolgus, UniProt Q95LI5 22-198); assay: cell binding cCD3, fold over background
T1 construct: whole, on cells; CD3 on cells; also called cCD3
T1 sequence (Q95LI5 22-198): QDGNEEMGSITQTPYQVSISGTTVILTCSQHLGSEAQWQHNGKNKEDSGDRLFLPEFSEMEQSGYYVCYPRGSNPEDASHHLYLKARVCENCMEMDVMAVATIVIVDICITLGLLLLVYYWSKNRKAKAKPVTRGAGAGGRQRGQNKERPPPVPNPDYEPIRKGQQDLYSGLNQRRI

[2] = biological target: T2, Human CD3 on Human CD3+ Jurkat cells (human, UniProt P07766 23-207); assay: cell binding hCD3, fold over background
T2 construct: whole, on cells; CD3 complex on cells; also called hCD3
T2 sequence (P07766 23-207): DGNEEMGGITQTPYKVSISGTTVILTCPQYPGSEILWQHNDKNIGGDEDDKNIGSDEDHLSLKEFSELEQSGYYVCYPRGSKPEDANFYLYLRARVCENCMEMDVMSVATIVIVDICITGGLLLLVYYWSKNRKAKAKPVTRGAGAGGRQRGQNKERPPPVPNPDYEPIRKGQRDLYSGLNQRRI

[3] = biological target: Cyno CD3εδ-Fc (cynomolgus) (UniProt Q95LI8); assay: KD of scFv-Fc or IgG on cyno CD3εδ-Fc; instrument not given
Cyno CD3εδ-Fc (cynomolgus), sequence (chain, as listed by the source mutant, chain 1 of 2): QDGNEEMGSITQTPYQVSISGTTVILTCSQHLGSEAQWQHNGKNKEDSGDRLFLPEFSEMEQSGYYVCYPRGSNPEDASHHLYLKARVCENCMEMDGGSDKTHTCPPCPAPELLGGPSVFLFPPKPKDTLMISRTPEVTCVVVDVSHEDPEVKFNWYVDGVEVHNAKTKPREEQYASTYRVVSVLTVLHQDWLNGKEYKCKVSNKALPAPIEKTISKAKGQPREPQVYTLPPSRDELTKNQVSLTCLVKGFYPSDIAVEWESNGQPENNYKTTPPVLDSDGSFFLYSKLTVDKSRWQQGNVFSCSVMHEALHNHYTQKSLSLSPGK
Cyno CD3εδ-Fc (cynomolgus), sequence (Q95LI8 22-105, stated change not applied, chain 2 of 2): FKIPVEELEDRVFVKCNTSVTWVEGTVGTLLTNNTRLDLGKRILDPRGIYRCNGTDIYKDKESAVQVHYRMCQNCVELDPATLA

Human CD3εδ-Fc (human), sequence (chain, as listed by the source mutant, chain 1 of 2): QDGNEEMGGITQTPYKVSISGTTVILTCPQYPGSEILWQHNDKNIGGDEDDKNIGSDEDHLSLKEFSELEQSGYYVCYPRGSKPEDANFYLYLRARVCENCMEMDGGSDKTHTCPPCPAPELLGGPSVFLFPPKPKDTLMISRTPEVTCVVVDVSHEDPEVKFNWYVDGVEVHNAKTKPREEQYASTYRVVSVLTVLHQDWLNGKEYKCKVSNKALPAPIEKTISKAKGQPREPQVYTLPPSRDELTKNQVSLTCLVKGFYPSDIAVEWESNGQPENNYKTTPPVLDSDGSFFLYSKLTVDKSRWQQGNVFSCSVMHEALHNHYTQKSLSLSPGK
Human CD3εδ-Fc (human), sequence (P04234 22-105, stated change not applied, chain 2 of 2): as the sequence (Q95LI8 22-105, stated change not applied, chain 2 of 2) above, with V5I, K15N, V20I, T32S, N33D, N34I, A64T, N74S, L83V counted along it

B1: ADI-46356 (antibody, V domains shown)
VH: QVQLVQSGAEVKKPGASVKVSCKASGFNIKDYYMHWVRQAPGQRLEWIGWIDLENANTVYDAKFQGRVTITRDTSASTAYMELSSLRSEDTAVYYCARDAYGRYFYDVWGQGTLVTVSS
VL: DIVMTQSPDSLAVSLGERATINCKSSQSLLNARTGKNYLAWYQQKPGQPPKLLIYWASTRESGVPDRFSGSGSGTDFTLTISSLQAEDVAVYYCVQSYFRRTFGGGTKVEIK
Kd (Human CD3εδ-Fc (human)): 980 pM
Cell Binding cCD3 (FOB) [1]: 59 FOB
Cell Binding hCD3 (FOB) [2]: 39 FOB

B3: ADI-46367 (antibody, V domains shown)
VH: B1 VH with T78I
VL: B1 VL with V95A
notes: also called Ab32
Kd (Human CD3εδ-Fc (human)): 950 pM
Cell Binding cCD3 (FOB) [1]: 62 FOB
Cell Binding hCD3 (FOB) [2]: 8 FOB

B4: ADI-46370 (antibody, V domains shown)
VH: B1 VH with A62H
VL: B1 VL
notes: also called Ab34
Kd (Human CD3εδ-Fc (human)): 1000 pM
Cell Binding cCD3 (FOB) [1]: 46 FOB
Cell Binding hCD3 (FOB) [2]: 40 FOB

B6: ADI-45961 (antibody, V domains shown)
VH: B1 VH
VL: B1 VL with G35R, K36R, A57G, V95K
notes: also called Ab24
Kd (Human CD3εδ-Fc (human)): 230 pM
Cell Binding cCD3 (FOB) [1]: 30 FOB
Kd [3]: 3000 pM
Cell Binding hCD3 (FOB) [2]: 18 FOB

B8: ADI-46381 (antibody, V domains shown)
VH: B1 VH with A62T
VL: B1 VL with S25T, S28G, G35N
notes: also called Ab43
Kd (Human CD3εδ-Fc (human)): 720 pM
Cell Binding cCD3 (FOB) [1]: 174 FOB
Cell Binding hCD3 (FOB) [2]: 71 FOB

B9: ADI-46379 (antibody, V domains shown)
VH: B1 VH with T78A
VL: B1 VL with T59A, V95T
notes: also called Ab41
Kd (Human CD3εδ-Fc (human)): 1000 pM
Cell Binding cCD3 (FOB) [1]: 105 FOB
Cell Binding hCD3 (FOB) [2]: 43 FOB

B10: ADI-45973 (antibody, V domains shown)
VH: B1 VH with G8E
VL: B1 VL with V95K
notes: also called Ab9
Kd (Human CD3εδ-Fc (human)): 160 pM
Cell Binding cCD3 (FOB) [1]: 91 FOB
Kd [3]: 1800 pM
Cell Binding hCD3 (FOB) [2]: 55 FOB

B11: ADI-45970 (antibody, V domains shown)
VH: B1 VH with I29V
VL: B1 VL with V95K
notes: also called Ab6
Kd (Human CD3εδ-Fc (human)): 150 pM
Cell Binding cCD3 (FOB) [1]: 68 FOB
Kd [3]: 1600 pM
Cell Binding hCD3 (FOB) [2]: 53 FOB

B12: ADI-46362 (antibody, V domains shown)
VH: B1 VH with L45P, V93A
VL: B1 VL
notes: also called Ab46
Kd (Human CD3εδ-Fc (human)): 800 pM
Cell Binding cCD3 (FOB) [1]: 95 FOB
Cell Binding hCD3 (FOB) [2]: 7 FOB

B13: ADI-46360 (antibody, V domains shown)
VH: B1 VH with L45P, T91A, V93A
VL: B1 VL with K51E, V95T
notes: also called Ab44
Kd (Human CD3εδ-Fc (human)): 970 pM
Cell Binding cCD3 (FOB) [1]: 106 FOB
Cell Binding hCD3 (FOB) [2]: 40 FOB

B14: ADI-46358 (antibody, V domains shown)
VH: B1 VH with S85N
VL: B1 VL with V95T
notes: also called Ab31
Kd (Human CD3εδ-Fc (human)): 990 pM
Cell Binding cCD3 (FOB) [1]: 82 FOB
Cell Binding hCD3 (FOB) [2]: 35 FOB

B20: ADI-46374 (antibody, V domains shown)
VH: B1 VH with E54N
VL: B1 VL
notes: also called Ab37
Kd (Human CD3εδ-Fc (human)): 840 pM
Cell Binding cCD3 (FOB) [1]: 29 FOB
Cell Binding hCD3 (FOB) [2]: 37 FOB

B21: ADI-46375 (antibody, V domains shown)
VH: B1 VH
VL: B1 VL with G35R, V95T
notes: also called Ab38
Kd (Human CD3εδ-Fc (human)): 860 pM
Cell Binding cCD3 (FOB) [1]: 40 FOB
Cell Binding hCD3 (FOB) [2]: 48 FOB

B22: ADI-46365 (antibody, V domains shown)
VH: B1 VH with S77G, Y80H, L114P
VL: B1 VL with V95T
notes: also called Ab49
Kd (Human CD3εδ-Fc (human)): 1000 pM
Cell Binding cCD3 (FOB) [1]: 84 FOB
Cell Binding hCD3 (FOB) [2]: 36 FOB

B23: ADI-45974 (antibody, V domains shown)
VH: B1 VH with S85N
VL: B1 VL with V95K
notes: also called Ab10
Kd (Human CD3εδ-Fc (human)): 190 pM
Cell Binding cCD3 (FOB) [1]: 67 FOB
Kd [3]: 2100 pM
Cell Binding hCD3 (FOB) [2]: 47 FOB

B25: ADI-46369 (antibody, V domains shown)
VH: B1 VH with V2A, A62T
VL: B1 VL
notes: also called Ab33
Kd (Human CD3εδ-Fc (human)): 920 pM
Cell Binding cCD3 (FOB) [1]: 71 FOB
Cell Binding hCD3 (FOB) [2]: 33 FOB

B27: ADI-45962 (antibody, V domains shown)
VH: B1 VH with K12E, K13E
VL: B1 VL
notes: also called Ab25
Kd (Human CD3εδ-Fc (human)): 140 pM
Cell Binding cCD3 (FOB) [1]: 46 FOB
Kd [3]: 1400 pM
Cell Binding hCD3 (FOB) [2]: 18 FOB

B28: ADI-46372 (antibody, V domains shown)
VH: B1 VH with S77G, Y80H, L114P
VL: B1 VL
notes: also called Ab36
Kd (Human CD3εδ-Fc (human)): 1100 pM
Cell Binding cCD3 (FOB) [1]: 80 FOB
Cell Binding hCD3 (FOB) [2]: 14 FOB

B29: ADI-46376 (antibody, V domains shown)
VH: B1 VH with F64L, R87G, L114P
VL: B1 VL with V95T
notes: also called Ab39
Kd (Human CD3εδ-Fc (human)): 1000 pM
Cell Binding cCD3 (FOB) [1]: 96 FOB
Cell Binding hCD3 (FOB) [2]: 4 FOB

B31: ADI-46364 (antibody, V domains shown)
VH: B1 VH with F64L, R87G
VL: B1 VL
notes: also called Ab48
Kd (Human CD3εδ-Fc (human)): 970 pM
Cell Binding cCD3 (FOB) [1]: 63 FOB
Cell Binding hCD3 (FOB) [2]: 33 FOB

B32: ADI-46363 (antibody, V domains shown)
VH: B1 VH
VL: B1 VL with V95T
notes: also called Ab47
Kd (Human CD3εδ-Fc (human)): 930 pM
Cell Binding cCD3 (FOB) [1]: 129 FOB
Cell Binding hCD3 (FOB) [2]: 49 FOB

B33: ADI-46361 (antibody, V domains shown)
VH: B1 VH with I29N
VL: B1 VL with V95T
notes: also called Ab45
Kd (Human CD3εδ-Fc (human)): 930 pM
Cell Binding cCD3 (FOB) [1]: 84 FOB
Cell Binding hCD3 (FOB) [2]: 23 FOB

B34: ADI-46371 (antibody, V domains shown)
VH: B1 VH with V2A, L45P, V93A
VL: B1 VL
notes: also called Ab35
Kd (Human CD3εδ-Fc (human)): 860 pM
Cell Binding cCD3 (FOB) [1]: 121 FOB
Cell Binding hCD3 (FOB) [2]: 47 FOB

Next, values leading:

Kd (Human CD3εδ-Fc (human)): 110 pM
Cell Binding cCD3 (FOB) [1]: 20 FOB
Kd [3]: 1900 pM
Cell Binding hCD3 (FOB) [2]: 21 FOB
B2: ADI-45971 (antibody, V domains shown)
VH: B1 VH with S17T, M34I
VL: B1 VL with G35R
notes: also called Ab7

Kd (Human CD3εδ-Fc (human)): 140 pM
Cell Binding cCD3 (FOB) [1]: 58 FOB
Kd [3]: 1800 pM
Cell Binding hCD3 (FOB) [2]: 63 FOB
B5: ADI-45960 (antibody, V domains shown)
VH: B1 VH
VL: B1 VL with V89A, V95A
notes: also called Ab23

Kd (Human CD3εδ-Fc (human)): 97 pM
Cell Binding cCD3 (FOB) [1]: 63 FOB
Kd [3]: 2000 pM
Cell Binding hCD3 (FOB) [2]: 56 FOB
B7: ADI-45964 (antibody, V domains shown)
VH: B1 VH with M34I
VL: B1 VL with V95A
notes: also called Ab27

Kd (Human CD3εδ-Fc (human)): 61 pM
Cell Binding cCD3 (FOB) [1]: 27 FOB
Kd [3]: 1200 pM
Cell Binding hCD3 (FOB) [2]: 14 FOB
B15: ADI-45966 (antibody, V domains shown)
VH: B1 VH with T69A
VL: B1 VL with V95T
notes: also called Ab29

Kd (Human CD3εδ-Fc (human)): 120 pM
Cell Binding cCD3 (FOB) [1]: 109 FOB
Kd [3]: 1800 pM
Cell Binding hCD3 (FOB) [2]: 45 FOB
B16: ADI-45976 (antibody, V domains shown)
VH: B1 VH with A97V
VL: B1 VL
notes: also called Ab12

Kd (Human CD3εδ-Fc (human)): 69 pM
Cell Binding cCD3 (FOB) [1]: 69 FOB
Kd [3]: 2100 pM
Cell Binding hCD3 (FOB) [2]: 14 FOB
B17: ADI-45963 (antibody, V domains shown)
VH: B1 VH with S17P
VL: B1 VL with V95K
notes: also called Ab26

Kd (Human CD3εδ-Fc (human)): 76 pM
Cell Binding cCD3 (FOB) [1]: 59 FOB
Kd [3]: 1400 pM
Cell Binding hCD3 (FOB) [2]: 40 FOB
B18: ADI-45967 (antibody, V domains shown)
VH: B1 VH with T71A, A79V
VL: B1 VL with T20I, V95T
notes: also called Ab3

Kd (Human CD3εδ-Fc (human)): 68 pM
Cell Binding cCD3 (FOB) [1]: 18 FOB
Kd [3]: 1400 pM
Cell Binding hCD3 (FOB) [2]: 16 FOB
B19: ADI-45968 (antibody, V domains shown)
VH: B1 VH with T74A
VL: B1 VL
notes: also called Ab4

Kd (Human CD3εδ-Fc (human)): 65 pM
Cell Binding cCD3 (FOB) [1]: 124 FOB
Kd [3]: 1400 pM
Cell Binding hCD3 (FOB) [2]: 33 FOB
B24: ADI-45965 (antibody, V domains shown)
VH: B1 VH with T58A
VL: B1 VL with E17G
notes: also called Ab28

Kd (Human CD3εδ-Fc (human)): 60 pM
Cell Binding cCD3 (FOB) [1]: 63 FOB
Kd [3]: 1500 pM
Cell Binding hCD3 (FOB) [2]: 28 FOB
B26: ADI-45969 (antibody, V domains shown)
VH: B1 VH with S84G
VL: B1 VL with V95A
notes: also called Ab5

Kd (Human CD3εδ-Fc (human)): 81 pM
Cell Binding cCD3 (FOB) [1]: 45 FOB
Kd [3]: 1400 pM
Cell Binding hCD3 (FOB) [2]: 32 FOB
B30: ADI-45972 (antibody, V domains shown)
VH: B1 VH with K13R
VL: B1 VL
notes: also called Ab8
